# Results taken from patent publication US20140295512A1, “Ketol-Acid Reductoisomerases With Improved Performance Properties” (CALIFORNIA INSTITUTE OF TECHNOLOGY, priority 2011, published 2014).
# B1: Zm: Zymomonas mobilis KARI homolog (protein, UniProt Q9X5F8 1-339, looked up)
# Ketol-acid reductoisomerase …: MKVYYDSDADLGLIKSKKIAILGYGSQGHAHAQNLRDSGVAEVAIALRPDSASVKKAQDAGFKVLTNAEAAKWADILMILAPDEHQAAIYAEDLKDNLRPGSAIAFAHGLNIHFGLIEPRKDIDVFMIAPKGPGHTVRSEYVRGGGVPCLVAVDQDASGNAHDIALAYASGIGGGRSGVIETTFREEVETDLFGEQAVLCGGLTALITAGFETLTEAGYAPEMAFFECMHEMKLIVDLIYEAGIANMRYSISNTAEYGDIVSGPRVINEESKKAMKAILDDIQSGRFVSKFVLDNRAGQPELKAARKRMAAHPIEQVGARLRKMMPWIASNKLVDKARN
# B2: Se1_KARI^4E10: S. exigua KARI variant L57V, R58P, S61C (protein, UniProt D0WGK0 1-342, looked up, variant L57V R58P S61C)
# Ketol-acid reductoisomerase …: MSVKTKEKEMAVTILYEQDVDPKVIQGLKVGIIGYGSQGHAHALNLMDSGVDVRVGVPEGCSSWKTAEEAGLKVTDMDTAAEEADVIMVLVPDEIQPKVYQEHIAAHLKAGNTLAFAHGFNIHYGYIVPPEDVNVIMCAPKGPGHIVRRQFTEGSGVPDLACVQQDATGNAWDIVLSYCWGVGGARSGIIKATFAEETEEDLFGEQAVLCGGLVELVKAGFETLTEAGYPPELAYFECYHEMKMIVDLMYESGIHFMNYSISNTAEYGEYYAGPKVINEQSREAMKEILKRIQDGSFAQEFVDDCNNGHKRLLEQREAINTHPIETTGAQIRSMFSWIKKED
# B3: Se1_NKR^Gen6-his6: S. exigua KARI variant S61D, S63D, I95V (protein, UniProt D0WGK0 1-342, looked up, variant S61D S63D I95V)
# Ketol-acid reductoisomerase …: MSVKTKEKEMAVTILYEQDVDPKVIQGLKVGIIGYGSQGHAHALNLMDSGVDVRVGLREGDSDWKTAEEAGLKVTDMDTAAEEADVIMVLVPDEVQPKVYQEHIAAHLKAGNTLAFAHGFNIHYGYIVPPEDVNVIMCAPKGPGHIVRRQFTEGSGVPDLACVQQDATGNAWDIVLSYCWGVGGARSGIIKATFAEETEEDLFGEQAVLCGGLVELVKAGFETLTEAGYPPELAYFECYHEMKMIVDLMYESGIHFMNYSISNTAEYGEYYAGPKVINEQSREAMKEILKRIQDGSFAQEFVDDCNNGHKRLLEQREAINTHPIETTGAQIRSMFSWIKKED
# modifications: His6 tag
# notes: S. exigua KARI variant S61D, S63D, I95V
# Experiments:
# Format in all cases: biochemical
# [1] = KARI enzyme assay on cell lysates with NADH and NADPH as cofactors
# Protocol: In this example, different KARI enzymes (Table 7) were screened for their activity with NADH and NADPH as cofactor. The enzymes were expressed in an S. cerevisiae strain by means of 2 micron plasmids carrying the KARI genes under the control of the S. cerevisiae TDH3 promoter. The transformants were cultivated in shake flask fermentations as described below and samples were taken after 44 h, centrifuged at 4000×g for 10 mins at 4° C. and the cell pellets were stored at −80° C. until analysis. The pellets were lysed by bead beating and the lysates were analyzed by KARI activity assay as described below using NADH and NADPH as cofactors.
# Patched cells (or single colonies) grown on YPD+G418 plates at 30° C. were mixed into 3 mL YP+12% dextrose+200 mM MES, pH 6.5+G418, in 14 mL culture tubes and incubated at 250 RPM, 30° C. for ˜24 hours. The cells from the cultures were used to inoculate YP+12% dextrose+200 mM MES, pH 6.5+G418, in non-baffled flasks with a vented grey screw-caps at OD600 0.01. The cultures were incubated at 250 RPM, 30° C. for 24 hours, diluted 1:3 and incubated for another 20 h at 250 RPM, 30° C. Samples for enzyme assay pellets and protein quantification pellets were taken from each shake flask, and cell-free supernatant was used to measure glucose levels in shake flasks.
# The assay and no substrate control reactions were performed in triplicate for each sample. The following stock solutions were prepared: 1 M potassium phosphate, pH 7, 0.1 M MgCl2, 100 mM DTT, 25 mM NADH or NADPH, 200 mM 2-acetolactate. The 2-acetolactate was made fresh each time by mixing 50 μL Ethyl-2-acetoxy-2-methylacetoacetate (EAMAA) with 990 μL water. Gradually 260 μL of 2 N NaOH was added in 10 μL increments to the EAMAA water mixture. After each addition the sample was vortexed for 15 seconds, and the procedure repeated until the entire 260 μL of 2 N NaOH was added. Afterwards the solution was mixed on an orbital shaker for 20 min (Krampitz, 1957). KARI reaction buffer (100 μL per reaction) was prepared to the following concentrations: 250 mM potassium phosphate, pH 7, 10 mM MgCl2, 1 mM DTT, 0.2 mM NADH or NADPH, 10 mM 2-acetolactate. For the no substrate controls, the 2-acetolactate was substituted with water. 10 μL of each lysate were transferred into a 96 well half area assay plate. The reaction was started with 90 μL of reaction buffer to each well using a multichannel pipette. The samples were mixed immediately. The samples were read at 340 nm every 10 s for 5 min.
# [2] = KARI assay of purified S. exigua KARI and variants with NADH (Examples 6-9); conditions: for U/mg NADH (specific activity): cofactor NADH; for Km: read-out: Km for cofactor NADH; for Ratio NADH/NADPH (U/mg): specific activity ratio
# Protocol: (§1) S. exigua KARI activity or activities of its variants were assayed kinetically by monitoring the decrease in NADPH or NADH concentration by measuring the change in absorbance at 340 nm. An assay buffer was prepared containing 100 mM potassium phosphate pH 7.0, 1 mM DTT, 2.5 mM (S)-2-acetolactate, and 10 mM MgCl2 (final concentrations in the 1-mL assay, accounting for dilution with enzyme and cofactor). Fifty μL purified enzyme and 930 μL of the assay buffer were placed into a 1-mL cuvette. The reaction was initiated by addition of 20 μL NADPH or NADH (200 μM final concentration) for a general activity assay. Michaelis-Menten constants of the cofactors were determined with varying concentrations of NADPH (200-12 μM final) or NADH (200-6 μM final).
# [3] = KARI assay of purified S. exigua KARI and variants with NADPH (Examples 6-9); conditions: for U/mg NADPH (specific activity): cofactor NADPH; for Km: read-out: Km for cofactor NADPH
# Protocol: as §1
# [4] = High-throughput screening of KARI variant libraries in E. coli lysates
# Protocol: For growth and expression of KARI variants in deep well plates, sterile toothpicks were used to pick single colonies into shallow 96-well plates filled with 300 μL LBamp. Fifty μL of these overnight cultures were used to inoculate deep well plates filled with 600 μL of LBamp per well. The plates were grown at 37° C. with shaking at 250 rpm for 3 h. One hour before induction with IPTG (final concentration 0.5 mM), the temperature of the incubator was reduced to 25° C. After induction, growth and expression continued for 20 h at 25° C. and 250 rpm. Cells were harvested at 5,300 g and 4° C. and then stored at −20=C. The plates always contained four wild-type or parent S. exigua KARI colonies, three BL21(DE3) colonies carrying pET22b(+) to control for background reactions in cell lysates, and one well that contained only media to make sure the plates were free of contaminations.
# Frozen cell pellets were thawed at room temperature for 20 min and then 200 μL of lysis buffer (100 mM Kpi, 750 mg/L lysozyme, 10 mg/L DNaseI, pH 7) were added. Plates were vortexed to resuspend the cell pellets. After a 60 min incubation phase at 37° C. and shaking at 130 rpm, plates were centrifuged at 5,300 g and 4° C. for 10 min. […] The depletion of NAD(P)H was monitored at 340 nm in a plate reader (TECAN) over 200 s.
Molecule,Specific Activity with NADH/Specific Activity with NADPH [1],NADH-Dependent Specific Activity ([1]; empty vector control subtracted),kcat NADH [2],kcat/Km ratio NADH/NADPH (cofactor specificity) [2],U/mg NADH (specific activity) [2],Km [2],Ratio NADH/NADPH (U/mg) [2],Ratio NADH/NADPH (U/mg) ([2]; listed as 4E10),kcat NADPH [3],U/mg NADPH (specific activity) [3],Km [3],NADH/NADPH activity ratio in the screen/rescreen relative to parent [4]
B1,0.074,0.002 U/mg lysate,–,–,–,–,–,–,–,–,–,–
B2,–,–,0.90 s⁻¹,0.1,0.36 U/mg,49 µM,1.0,1,0.90 s⁻¹,0.36 U/mg,4 µM,more than doubled
B3,–,–,1 ± 0.01 s⁻¹,87,0.4 ± 0.01 U/mg,47 ± 15 µM,5.7,–,0.18 ± 0.00 s⁻¹,0.07 ± 0.0 U/mg,> 1000 µM,–
